Results: IntAct's records for PubMed 19703395

B1: Transposon Tn7 transposition protein TnsE (Escherichia coli), P05845 (parent)
chain: MVRLATFNDNVQVVHIGHLFRNSGHKEWRIFVWFNPMQERKWTRFTHLPLLSRAKVVNSTTKQINKADRVIEFEASDLQRAKIIDFPNLSSFASVRNKDGAQSSFIYEAETPYSKTRYHIPQLELARSLFLINSYFCRSCLSSTALQQEFDVQYEVERDHLEIRILPSSSFPKGALEQSAVVQLLVWLFSDQDVMDSYESIFRHYQQNREIKNGVESWCFSFDPPPMQGWKLHVKGRSSNEDKDYLVEEIVGLEINAMLPSTTAISHASFQEKEAGDGSTQHIAVSTESVVDDEHLQLDDEETANIDTDTRVIEAEPTWISFSRPSRIEKSRRARKSSQTILEKEEATTSENSNLVSTDEPHLGGVLAAADVGGKQDATNYNSIFANRFAAFDELLSILKTKFACRVLFEETLVLPKVGRSRLHLCKDGSPRVIKAVGVQRNGSEFVLLEVDASDGVKMLSTKVLSGVDSETWRNDFEKIRRGVVKSSLNWPNSLFDQLYGQDGHRGVNHPKGLGELQVSREDMEGWAERVVREQFTH

Variants of: B1
Conditions: with dpo3b_ecoli dnaN

Effect of a mutation on the interaction, decreasing interaction:
Q122A
F130A
L125A
L123A
L129A
L131A
